# In paper PMC2852419, “Identification of SOX9 Interaction Sites in the Genome of Chondrocytes”:
# Target: SOX9 (Homo sapiens, UniProt P48436 1-509)
# Assay: EMSA; EMSA with recombinant human SOX9 and 32P probes as in cited ref 67; buffer, salt, pH and temperature not given
# Settings: protein: recombinant; chain copies: 2; label: 32P-dCTP Klenow fill-in
# SOX9, sequence (P48436 whole entry): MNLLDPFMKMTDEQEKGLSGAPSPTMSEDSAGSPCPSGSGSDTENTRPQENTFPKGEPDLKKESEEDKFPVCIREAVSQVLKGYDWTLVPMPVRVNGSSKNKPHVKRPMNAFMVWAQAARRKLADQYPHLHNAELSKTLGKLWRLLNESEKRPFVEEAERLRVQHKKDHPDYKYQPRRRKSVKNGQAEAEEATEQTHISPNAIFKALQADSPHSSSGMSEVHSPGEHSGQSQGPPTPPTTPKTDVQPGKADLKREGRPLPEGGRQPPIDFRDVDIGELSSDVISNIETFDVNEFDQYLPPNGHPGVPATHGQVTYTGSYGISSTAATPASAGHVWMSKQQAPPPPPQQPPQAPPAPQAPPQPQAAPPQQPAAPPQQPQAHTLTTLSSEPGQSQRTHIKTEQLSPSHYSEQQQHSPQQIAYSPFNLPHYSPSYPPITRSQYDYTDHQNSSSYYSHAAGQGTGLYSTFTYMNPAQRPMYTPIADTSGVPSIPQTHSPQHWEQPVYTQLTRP
row,Binder,binding result
1,Col2a1 intron 6 (human) (dsDNA) DNA 1: GGCAGGTAACTGAGGACTTTCTTTATAGAATCCCAG DNA 2: CTGGGATTCTATAAAGAAAGTCCTCAGTTACCTGCC,binds
2,Col2a1 intron 6 mutant (dsDNA) DNA 1: GGCAGATAGCTGTTTTCCTTTTCGACAGAAACCCAG DNA 2: CTGGGTTTCTGTCGAAAAGGAAAACAGCTATCTGCC,no binding
